# Literature values as cited in publication PMC2737186.
# Target: Cys1 (UniProt position 252, VVKNKCLAEGT)
substance,measurement,value
"Mtu RecA intein (form studied by Shingledecker, Jiang and Paulus 2000) (Mycobacterium tuberculosis)",pKa,8.2
